Results published in patent US20060036083.

Tested on: ADP-ribosylated HNP-1
Sequence (chain, as listed by the source): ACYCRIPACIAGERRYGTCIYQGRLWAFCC

Substance: recombinant human ADP-ribosylarginine hydrolase
- Release of ADP-ribose from ADP-ribosylated HNP-1 (MALDI-MS): released a molecule of 3,444 daltons consistent with HNP-1 (calculated 3, 443 daltons)
